According to US20200040057A1 (IMMATICS BIOTECHNOLOGIES, published 2020):

target: HLA-B*07 (human); test: UV peptide exchange ELISA; +++ = yield >50

Binder | peptide exchange yield
APADEPRTVL | 50 to 75%
MPATPSLKV | 50 to 75%
LPLHRGDLVI | 50 to 75%
RVLLRWISL | 50 to 75%
RPFPLALL | 50 to 75%
NPREPEKSL | 50 to 75%
SPSLQSSRESL | 50 to 75%
LHAMNSLSAM | 50 to 75%
LPMTHRLQL | 50 to 75%
LPYEKVSRL | 50 to 75%
RAVPVGSGL | 50 to 75%
SPSKSLEM | 50 to 75%
RITWKGLLL | 50 to 75%
HPYSDLADVF | 50 to 75%
SVLPRALSL | 50 to 75%
APEPRAALL | 50 to 75%
SPDSAILKL | 50 to 75%
AASPVGSAL | 50 to 75%
VPPQNPRPSL | 50 to 75%
RPHQKGWLSI | 50 to 75%
FAFYGGKSL | 50 to 75%
GPQRTTSV | 50 to 75%
WPRLPGAGL | 50 to 75%
IPIDQILNSF | 50 to 75%
QPQQPGFFL | 50 to 75%
QPANFIVLL | 50 to 75%
IPAPQGAVL | 50 to 75%
FPAFLEAM | 50 to 75%
YPLQGPGLLSV | 50 to 75%
LIAARGSLVL | 50 to 75%
